{"source": "patent US20230312751A1", "about": "“Anti-Fibrotic Combination” (Engitix Limited, priority 2020, published 2023)", "molecules": {"B1": {"name": "chymase: human chymase, mast cell serine protease, added exogenously to stimulate hepatic stellate cells (protein, UniProt P23946 22-247, looked up)", "Chymase": "IIGGTECKPHSRPYMAYLEIVTSNGPSKFCGGFLIRRNFVLTAAHCAGRSITVTLGAHNITEEEDTWQKLEVIKQFRHPKYNTSTLHHDIMLLKLKEKASLTLAVGTLPFPSQFNFVPPGRMCRVAGWGRTGVLKPGSDTLQEVKLRLMDPQACSHFRDFDHNLQLCVGNPRKTKSAFKGDSGGPLLCAGVAQGIVSYGRSDAKPPAVFTRISHYRPWINQILQAN"}}, "type_in_all_cases": "cell-based", "key": {"Primary human HSCs [1]": {"tested_on": "Primary human HSCs", "assay": "Secretion of pro-fibrogenic factors by stimulated HSCs, Luminex (Example 9)", "settings": "48 h", "method": "Primary human HSCs were grown to confluence and maintained in growth media for 10 days. Cells were maintained in serum-free media for 48 h and subsequently stimulated with either human Chymase (30, 100 or 300 ng/mL), human tryptase alone (300, 1000, 3000 ng/mL) or in combination with chymase for a further 48 h. The TGFβ1 (3 ng/mL) served as a positive control and serum-free conditions as a negative control. Media was removed after 48 h and levels of secreted IGFBP-3, Tenascin C, Collagen IV and Endostatin levels were determined by Luminex."}, "[2]": {"tested_on": "Primary human hepatic stellate cells (HSCs)", "assay": "Collagen type I production by stimulated HSCs, western blot (Example 7)", "settings": "48 h stimulation, chymase 30, 100 or 300 ng/mL, tryptase 300, 1000, 3000 ng/mL, alone or in combination", "method": "Primary human hepatic stellate cells (HSCs) were grown to confluence and maintained in growth media for 10 days. Cells were maintained in serum-free media for 48 h and subsequently stimulated with either human chymase alone (30, 100 or 300 ng/mL), human tryptase alone (300, 1000, 3000 ng/mL) or human chymase and tryptase in combination as indicated for a further 48 h. The PAR2 agonist at 10 or 100 ng/mL and TGFb1 (3 ng/mL) served as a positive control, whilst serum-free conditions provided a negative control.\nMedia was removed and the cells and extracellular proteins deposited lysed in RIPA buffer."}, "Primary human HSCs [3]": {"tested_on": "Primary human HSCs", "assay": "Active/latent TGFβ in HSC conditioned media, TGFb-responsive luciferase reporter cells (Example 10)", "settings": "conditioned media heated at 80° C. for 10 minutes; chymase 100 (C2) and 30 ng/mL (C3)", "method": "Primary human HSCs were grown to confluence and maintained in growth media for 10 days. Cells were maintained in serum-free media for 48 h and subsequently stimulated with either human Chymase (30, 100 or 300 ng/mL), human tryptase (300, 1000, 3000 ng/mL) or both in combination as indicated for a further 48 h. The TGFb1 (3 ng/mL) served at positive control and serum-free conditions as a negative control.\nConditioned media was collected and either transferred directly to cells harbouring a TGFb-responsive promoter linked to the firefly luciferase reporter gene for 24 h to determine the levels of active TGFb present in media, or conditioned media was heated at 80° C. for 10 minutes in order to activate in the conditioned media the latent TGFb into active TGFb present. The addition of exogenous TGFb1 (1 ng/mL served as a positive control. Cells were lysed after 24 h and levels of latent or active TGFb determined by measuring luciferase activity. The results are shown in FIG. 11."}, "[4]": {"tested_on": "Primary human hepatic stellate cells (HSCs)", "assay": "Deposited collagen type I in stimulated HSCs, immunofluorescence (Example 8)", "method": "Primary human hepatic stellate cells (HSCs) were grown for 2 days. Cells were maintained in serum-free media for 48 h and subsequently stimulated with either human chymase (C) at 100 ng/mL, human tryptase (T) alone at 1000 ng/mL) or in combination (C 100 ng T 1000 ng) as indicated for a further 48 h. TGFβ1 served as a positive control, and serum-free conditions (SFM) as a negative control.\nFollowing stimulation, media was removed and the cells washed in PBS and fixed with Formalin 4% for 15 min. Cells and extracellular proteins were stained with Rb ANTI-Col I (Novus Biologicals, NB600-408, 1:500) and images were acquired at 20× using a confocal microscope."}, "[5]": {"settings": "chymase 100 ng/mL, tryptase 1000 ng/mL, 48 h"}}, "note": "Entries after “also recorded” stand apart in the source; their conditions may differ.", "data": [{"molecule": "B1", "values": [{"measurement": "secreted IGFBP3", "setting": "Primary human HSCs [1]; regardless of concentration", "result": "marked increase"}, {"measurement": "secreted Tenascin C", "setting": "Primary human HSCs [1]; chymase 30, 100 or 300 ng/mL", "result": "concentration-dependent increase"}, {"measurement": "secreted collagen IV", "setting": "Primary human HSCs [1]; chymase 30, 100 or 300 ng/mL", "result": "concentration-dependent increase"}, {"measurement": "secreted endostatin", "setting": "Primary human HSCs [1]; chymase at all concentrations", "result": "significant increase"}, {"measurement": "collagen type I protein compared to basal levels in untreated cells", "setting": "[2]", "result": "marked increase"}, {"measurement": "secreted latent TGFβ in conditioned media", "setting": "Primary human HSCs [3]", "result": "increases"}, {"measurement": "cell number (nuclear stain Hoechst)", "setting": "[4]; C100 ng/mL, T1000 ng/mL, C100/T1000 ng/mL, relative to serum-free medium and TGF-beta controls", "result": "no effect"}, {"measurement": "deposited collagen type I (collagen area / immunofluorescence intensity normalised to cell number) relative to SFM", "setting": "[4]; [5]", "result": "did not induce a significant change"}, {"measurement": "distribution of deposited collagen type I compared to serum-free alone (SFM)", "setting": "[4]; [5]", "result": "change in distribution; also recorded: altered collagen distribution patterns"}]}]}
